{"source": "patent US20210023121A1", "about": "“THROMBIN-RESPONSIVE HYDROGELS AND DEVICES FOR AUTO-ANTICOAGULANT REGULATION” (North Carolina State University, priority 2017, published 2021)", "target": "T1, thrombin (Bos taurus, UniProt P00735)", "T1 construct": "purchased Sigma-Aldrich", "test": "LC-MS analysis of peptide cleavage by thrombin", "format": "biochemical", "conditions": "12 h incubation with 1 U mL^-1 thrombin in Tris buffer pH 7.4", "procedure": "LC-MS analysis of peptide cleavage. Peptide with sequence GGLVPR|GSGGC (SEQ ID NO:1) was incubated with thrombin (1 U/mL) in Tris buffer (20 mM Tris, 150 mM NaCl, 2.5 mM KCl, pH 7.4) for 12 h."}
{"sequence": "GGLVPRGSGGC [thrombin cleavable peptide, linker peptide cleaved by thrombin between Arg and Gly]", "values": [{"measurement": "cleavage of the peptide by thrombin (LCMS)", "value": "efficiently cleaved"}]}
